“And” between values parts separate entries of the source, which are not always exact repeats. Identical values can stand only once.
Columns and labels:
[1] = tested on: CaStn1N;CaTen1 (Candida albicans;Candida albicans); assay: UV crosslinking; conditions: reference; normalized to Ten1 adduct; single Iodo-dU; EMSA: 10 mM Tris-HCl pH 8.0, 2 mM MgCl2, 1 mM spermidine, 1 mM DTT, 10% glycerol, 22 C; UV crosslinking: 50 mM Hepes-NaOH pH 7.5, 10% glycerol, 30 mM …
[2] = tested on: CaStn1N K98E/K170E;CaTen1 (Candida albicans;Candida albicans); assay: UV crosslinking; conditions: single Iodo-dU; EMSA: 10 mM Tris-HCl pH 8.0, 2 mM MgCl2, 1 mM spermidine, 1 mM DTT, 10% glycerol, 22 C; UV crosslinking: 50 mM Hepes-NaOH pH 7.5, 10% glycerol, 30 mM …
Cdc13 (Candida glabrata) = assay: competition; conditions: labeled CgTELX1 7.5 nM, Cdc13 6 nM; EMSA: 10 mM Tris-HCl pH 8.0, 2 mM MgCl2, 1 mM spermidine, 1 mM DTT, 10% glycerol, 22 C; UV crosslinking: 50 mM Hepes-NaOH pH 7.5, 10% glycerol, 30 mM …
[3] = target: Cdc13 (CST subunit);Stn1;Ten1 (Candida glabrata;Candida glabrata;Candida glabrata) (UniProt Q6FM89); assay: competition; conditions: labeled CgTELX1 7.5 nM, CST 10 nM; EMSA: 10 mM Tris-HCl pH 8.0, 2 mM MgCl2, 1 mM spermidine, 1 mM DTT, 10% glycerol, 22 C; UV crosslinking: 50 mM Hepes-NaOH pH 7.5, 10% glycerol, 30 mM …
[4] = target: SUMO-CgCdc13-FLAG fusion protein (Candida glabrata Cdc13) (Candida glabrata); assay: co-IP; extract of E. coli co-expressing SUMO-Cdc13-FG and HIS6-SUMO-Stn1 (CS) on M2 (anti-FLAG) resin; Coomassie and Western (anti-FLAG, anti-HIS6)
[5] = target: SUMO-CgCdc13-FLAG fusion protein (Candida glabrata Cdc13) (Candida glabrata); assay: co-sedimentation; purified CST complex on a 15-30% glycerol gradient; fractions by Western with anti-SUMO (Cdc13, Stn1) and anti-GST (Ten1); 500 kDa fraction also in serial two fold dilutions with anti-SUMO
[6] = target: SUMO-CgCdc13-FLAG fusion protein (Candida glabrata Cdc13) (Candida glabrata); assay: Western analysis of serial dilutions with anti-SUMO antibodies; serial three fold dilutions of the purified CST complex; SUMO tag present in both the Cdc13 and Stn1 fusions
[7] = target: SUMO-CgCdc13-FLAG fusion protein (Candida glabrata Cdc13) (Candida glabrata); assay: Coomassie staining intensities of the subunits in SDS-PAGE against BSA standards; purified CST complex (M2 fractions); intensities assumed proportional to molecular weights

Substance C. albicans telomere IdU oligo has a binding signal (fraction of WT Stn1N crosslinking) [1] of 1 and a binding signal (fold reduction vs WT) [2] of 3.

Work on “CGGTGTAAGGATGCACTTGAAACTCGGTGTAAGGATGCACTTGAAACT [LeTELX2]” yielded a binding signal (fold more competitor than CgTELX1) (Cdc13 (Candida glabrata)) of over 200 and a binding signal (fold more competitor than CgTELX1) [3] of over 200.

With “HIS6-SUMO-CgStn1 fusion protein (Candida glabrata Stn1) (natural protein)” the stoichiometry N (Stn1 per Cdc13) [4] was 2 to 3, the stoichiometry N (Stn1 per Cdc13) [5] was 2.5 and the stoichiometry N (Stn1 per Cdc13) [6] was 2.5. For the same substance, the stoichiometry N (Stn1 per Cdc13) [7] was 2 and 3 and 2.5.

Work on “SUMO-CgCdc13-FLAG fusion protein (Candida glabrata Cdc13) (natural protein)” yielded a stoichiometry N [5] of 2.

“TCTTTAGGGAGGTACTGATGTTCTTTAGGGAGGTACTGATGT [ClTELX2]” was tested, and the binding signal (fold more competitor than CgTELX1) (Cdc13 (Candida glabrata)) was 20 and the binding signal (fold more competitor than CgTELX1) [3] was 20.

“TTAGGATCCATGAAAACTGAAGAAGGTAAACTGGTA [R1]” was tested, and the binding signal (fold more competitor than CgTELX1) (Cdc13 (Candida glabrata)) was over 200 and the binding signal (fold more competitor than CgTELX1) [3] was over 200.

Reference: publication PMC3536697
